Results from the DeepSol protein solubility set.

Assay: soluble on expression in E. coli; label from the status in PepcDB or PDB records
In the case of “MSSFTHFNDQGRAKMVDISDKKATVRTAIACSSIVVTKEIYDKISHNEIGKGDVLAVAQIAGIMAAKRTSDIIPMCHPLLLKGVDVSFDWKQSDEQYRLLIEVKVKTEGSTGVEMEALTAASATALTVYDMCKAVDKGMIIGETYLLEKTGGKSGDYTRKS”, the “soluble on expression in E. coli” value is reported as “not soluble”.
For “VIADDFTGATDIASFLVENGMPTVQINDVPTGTQPEGCDAVVISLKTRSCPAQEAIKQSLAALVWLKKQGCQQVYFKYCSTFDSTAEGNIGPVTDALMVALDTSFTVISPALPVNGRTVYQGYLFVMNHLLAESGMRHHPINPMTDSYLPRLMEAQAQGRCGVIPAQTLDEGVAATRAALSRLQQEGYRYAVLDALNERHLEIQGEVLRDAPLVTGGSGLAMGLARQWAKHGVSQARSAGYPLSGRAVVLSGSCSQMTNQQVAFYRQHAPTRDVDVARCLSSETREAYAEALAQWVLSQDSELAPMISATASTQALAAIQQQYGATEASHAVEALFSLLAARLAEGGITRFIVAGGETSGVVTQSLGITGFHIGPCISPGVPWVNALHAPVSLALKSGNFGDES”, the “soluble on expression in E. coli” value was “not soluble”.
For “MGSDKIHHHHHHMKTTFNLSRFYKACNPSYTLNISNVLDRQYYIDFADVRGCKIVEELQRTIVRISPDEPTCQLFTGHIGCGKSTELQRLKTELELAGFHVVYFESSQDLDMADIDISDILLSVARQVSASLEGINIKLKGGYFTNLFKEVGDFLQSPIELSGQAELSLGIAKITAKTKDSTQMRNQLRQYLEPRTNSILQAINEEILERAVEQLKLRGQKGLVVIVDNLDRVDMRPLASGRSQPEYLFIDRGEQLRRLKCHLVYTIPLTLIFSNEYETLKNRLGGGIAPKVLPMVLVRQRDGSDYEPGMSLVRQLVLARAFPEVSLNERLLLITELFDHSQTLDRICRVSGGHIRNLLGLLYSCLQRQDPPFSRECLEAVIKDYRDDLLLAIDESQWELLFEVVQQQRVKGESDYQSLLRSMYLFEYRDPLGRWFGISPALAETEKVLAWQQKK”, the “soluble on expression in E. coli” value was “not soluble”.
With “MGSDKIHHHHHHMILKFLNETLPWVRKPSRYIGREINSVVKDPEEISLRIALVFPDTYEVGTSNHGLEILYHILNEQPDVWAERSYLPWIDMIERMKEKDIPLYTMESYTPLYQMDAVGISLEYELSYTNVVEVLKLSKIPIFFWERKRRDPIVLGGGPCSSNPEPIYGFFDAILIGDGEEAILEIAQVLKETKGEERETIWKELSRIEGVYVPAFYEQKGRKIVPVSPEYPRTIKRRIVKDLNSQPVPVKKIVPNVESVHDRAVIEVARGCTRGCRFCHASVYYRPVRERSLENILENVEEMLKNTGYEEVSLLSLSTMDHTQIGEIVSELLKRYSEKKIAVSIPSTRMDRFGVEIAGRIASVRKTGLTFAPEAATQRLRNIINKNISEEDIFATLEAAKKSGWRRVKLYFMMGLPGETNEDLEEMVKLLERVKRLGFKEVSASVSVFVPKPHTPFQFARQISPEEAYEKIKTLKRAKRSARISYHDPRMSLLEGVFSRGDRKLLDLIVKAHELGALFDEWSEMFRFDLWEKAFDETGIDPNDYLREIDPSEDFPWDHIDMGVTKEFLKEEYRKALKGETTDDCRWNRCYLCGVCFRFGVKNVLFGGERG” the “soluble on expression in E. coli” value was “not soluble”.
With “MSTINYDLSRIKALAFDVDGVLSSTTVPLHPSGEPMRTVNIKDGYAIQLAVKKGLHIAIITGGRTEAVRIRFAALGVKDLYMGSAVKIHDYRNFRDKYGLSDDEILYMGDDVPDIEVMRECGLPCCPKDAVPEVKSVAKYISYADGGRGCGRDVVEQVLKAHGKWMAEDAFGW” the “soluble on expression in E. coli” value was “not soluble”.
In the case of “MHFKDLGLHDYTLKNLMYENNCCKFYDAVDENNISYVLKFVPSDVTSEGDTFPFVDRFQVKEGVFLVYSSNDFGKEGTDYFTYTGSGGNEVHISGTSSEAGIKPQFIETCHPKHLKRGTKEQEDINSSTSKKSAVINNFSGEKTPNPRPQSSNISERETYVGILNVKCKNKNSSKIRSEKLVSSVIETKHTPGLASILSKEGTTYPNNADGKHISIVNPSSKIYHSSHKQIVKTPIPKSGLSPIERCPFNGQNIKCYSPRPLDHESPQRDFNNNFQLRILKSSVLQRRQSTQNS”, the “soluble on expression in E. coli” value is reported as “soluble”.
In the case of “MAHHHHHHSLEIRAFSKYRKRALSLVRGKVLEIGVGTGKNLPYYPKDVEVIGIDFSRNMLKKAEERRRKLRLENVTLLYMDAQDLEFEDNTFDTIVSTFVFCTVPDPIKGLKEAYRVLKPGGRAIFLEHMKSESKLLNVPLYLMEPFIRTLLGTSLLRETQRNIERAGFKIEKVENLFYDIVRLIIATKDEG”, the “soluble on expression in E. coli” value is reported as “soluble”.
In the case of “MSETKNDIAWERIFKKYRILEKIKKNGAFEITSGQINEFREARLMTKFDHRKNLPKIFEENNFSILPITRGSYLIAQFKAYHRLEEKETEIIKIPFPTYIESIDYENITSEAAALNCAYVSGILADFIEDEEMVPTVTGRMSSDAFCFYINTYSGSKFKVNVTNAQIEIDGGYEGLGTFSLIEAKNSLSDDFIIRQIYYPYRLWHDKINKKVKPIFMTYSNGIFTFYEYEFQDPEDYNSLTLVKQKKYSIEETEIGLDDIIEIYKRTKIINEPEVPFPQADSFERIINLCELLNESELTRDEITTNYDFDSRQTNYYTDAARYLGLVHKRKEGREVIFSLTEEGEKLFKLKYKPRQLKFVELILSHKVFREVFELCLKNGKMPDKHEVVKIMRYSNLYKIESEKTFYRRAQTIMSWIKWILELTRL”, the “soluble on expression in E. coli” value is reported as “not soluble”.
With “MGSDKIHHHHHHMVMNRSSLDGFFDPSYLENILGNFTQATGLRIEAVNYRGETFSIPGSLDRSPFCQCIRNNPQGNKRCIDSYKRATSEAVKWDEPYFFRCHAGLVIWAVPILSKDITLGSIICGQVLLWKPDRFFIQELQDISKGLKIDPEELNQAVPNLSIISADQAQAAANLLFVVVSHILKNNLRALEEEKAYKVLQQQLHDQILKRKKGPRRTDISYESILKDERRFLQYIRLGDKSRAFATLENLIIKIYTKSTGEPQLAKDRIVELAALTSRAAVEGGSDAEQAVTILSSFYKKLENMERVEEIIYFIKQIVDEFLENIFILADKKHLSLVKDARSFILHNHAQPLTIADAAQHLFISPSHLSRLFRQQLDCTFNDYLTRVRVEKAVELLKKPEFSVKDVALAVGFQNQSHFAKVFRKYIGVTPLVYRNSLF” the “soluble on expression in E. coli” value was “not soluble”.
For “GPYATEVELREMVDIAQEHGIVEIEERRMIQSVFDLASTTVRQVMVPRPEMIWIESGKTAGQATALCVRSGHSRIPVIGENVDDIIGIVYLKDLVQKTYYATDGGKSVLVDEVMREATFVPDSKSLDALLQEMQEDHKHIAILVDEYGGVAGLISIEDILEEIVGEIADEYDAREVAPIEKIGDRTYRVVSRL”, the “soluble on expression in E. coli” value was “not soluble”.
For “MGSDKIHHHHHHMELKEHFNNKIFKLISETADELGLECYVVGGYVRDIFLKRPSKDIDVVVVGSGIEMAQAFGRKLGRGARVSVFKNFGTAQIKYHDTEVEFVGARKESYSHDSRKPVVENGTLEDDQNRRDFTINAMAVCLNKARFGELVDPFNGLDDLKERTIRTPLDPDITFSDDPLRMMRCVRFATQLNFYIDDTTFEALSRNKERIHIISKERIADELNKILLAPIPSKGFIELDRCGLLPLIFPELVALQGVETRNGRAHKDNFYHTLEVVDNISKHTDNLWLRWATLLHDIGKPRTKRWEPRIGWTFHNHNFIGEKMVPDLFRKMKLPMNEKMKYVQKLVSLHMRPIVIADDVVTDSAVRRLLFEAGDDIDDLMMLCEADITSKNEARKQKFLDNFKLVRQKLKDLEEKDRIRNFQPPVDGEEIMRIFDLQPCREIGSLKSSIKDAILDGIIPNEHDAALEHMLKKAKSMGLTPKNL”, the “soluble on expression in E. coli” value was “not soluble”.
For “MDQNVPISKKLWNIVRFLLYMIRKGVSKNKLIADFNATLKRGKNLMFHQRRRVHAGSTASAALNATSATASSRQEYEFSCSNTPNYSFPFSNMAFMRKKSHNNLFTCGQTPQTLDDDVAAARAVLELLNGVGEKGNVTPADLTVALSPYFPGFGQTPLVRPLRVTDSPFPLTPENGDVANGHVDKAADDFIKKFYKNLNQQKKMIEFS”, the “soluble on expression in E. coli” value was “not soluble”.
In the case of “GEPVEFQPKYRDLMLVVDLSGSMQKEDMNLDGEYIDRLSAVKKVLSDFVAKRKGDRLGVVLFGDHAYLQTPLTADRQTVIQQIKQTVIGLVGQRTAIGDGIGLGTKTFVDSDAPQRVMILLSDGSNTAGVLDPIEAAEIAKK”, the “soluble on expression in E. coli” value is reported as “not soluble”.
With “MITYKNILIAVDGSHEAEWAFNRAVGVAKRNDAKLTIVNVIDSRTYSSYEVYDAQFTEKSKHFAEELLNGYKEVATNAGVKDVETRLEFGSPKSIIPKKLAHEINADLIMSGTSGLNAVERFIVGSVSESIVRHAPCDVLVVRTEELPADFQPQVATTQLREKYQN” the “soluble on expression in E. coli” value was “not soluble”.
In the case of “MSALKWTNIGATSGAKSCQRWLFYAYDRIRRTVVPHVFGERTLATLERLLSLLSAFEVVVWMTDGWPLYESRLKGKLHVISKRYTQRIERHNLNLRQHLARLGRKLLSFSKSVELHDKVIGHYLNIKHYQLEHHHHHH”, the “soluble on expression in E. coli” value is reported as “not soluble”.
With “MRQKLGNTDQAADLVQDTFIKLLQTRDELFGIKEPRAYLTSIAKNLLIDQVRRKRIEQAYLDGLSQMKYMLDAVASPEDQMQIIQAINQLCKALEGVSEKAQQAFILHYLEGYTHKEIAERLNVSTKMIQKYLASCLIQCYQNRQDMDACI” the “soluble on expression in E. coli” value was “not soluble”.
With “MGSDKIHHHHHHMDRLIYTAMTGLKHIMEQQSTTANNLANATTTGFRAQIDSFRAVPVLSDGLPTRAFVVDATVGTNFNSGVINTTGRELDLAIRDQGWFAVQRPDGTEAYTRNGNFKLNENGVLQTQDGMMVLGDNGPITIPLEAKVAFANDGMVSAVATNVVPLFTNMIGRLKLVNPGDDNLVRGPDGLFETRNREPVPASANVTIVSGALEGSNVNVVEEMVNMISQARQFDLQTKLIQNAENNATKAGQIFSLS” the “soluble on expression in E. coli” value was “not soluble”.
With “MTTILSVRDVKKVIGKKTIVENISFDVKQGEVFGFLGPNGAGKTTTIRMLVGLIKETEGTISIGGYSIKENFREAMRQIGSIVENPELYTYLTGWENLKQFARMLGGISDERIIEIAHMVHLDERIHDKVKTYSLGMKQRLGIAQALLGNPKLLILDEPTNGLDPAGIRELREFIHKLVKEENMSVFISSHLLSEVQMICDRVAIIHKGKMITVAKVEELIKTASDRVEWIVTPISKTKDMLVDAEEVREVSIEGDRLLCRMHISSISNWNKTFVENGIDVHSVKELVFTLEDLFIELTRGEQHA” the “soluble on expression in E. coli” value was “not soluble”.
For “MTETPMMDDLERVLYNQDDIQKRIRELAAELTEFYEDKNPVMICVLTGAVFFYTDLLKHLDFQLEPDYIICSSYSGTKSTGNLTISKDLKTNIEGRHVLVVEDIIDTGLTMYQLLNNLQMRKPASLKVCTLCDKDIGKKAYDVPIDYCGFVVENRYIIGYGFDFHNKYRNLPVIGILKESVYT”, the “soluble on expression in E. coli” value was “soluble”.
In the case of “MTEDEWEKQSSFVPVNADPLSPYTEKVKTLAAHRLDFHIRENLRLGVGELTMIGGKYPDLFAVSPFSIWHNNYNEGYTNSMASFDFSWVPKKGFEVHGEFVLDDLVGTTENESKPTAYAFNVGVRRALSTGSLKGVLGVEYALATKFVYNTFLPYLKFNNRIVYLTNLPSSRTIVDYPVGFAFGPDAKLLNVSFDLFKENVSLETDFFYLVKGPNTLYTEYPTAEEGETKTIFGASLRGKIGHVSFSLLFSGSEFLAGLGIEFGF”, the “soluble on expression in E. coli” value is reported as “not soluble”.
With “GMVVNESMYQLGSVRSAIRELFEYGKKRAAIVGKENVYDFSIGNPSIPAPQIVNDTIKELVTDYDSVALHGYTSAQGDVETRAAIAEFLNNTHGTHFNADNLYMTMGAAASLSICFRALTSDAYDEFITIAPYFPEYKVFVNAAGARLVEVPADTEHFQIDFDALEERINAHTRGVIINSPNNPSGTVYSEETIKKLSDLLEKKSKEIGRPIFIIADEPYREIVYDGIKVPFVTKYYDNTLVCYSYSKSLSLPGERIGYVLVPDEVYDKAELYAAVCGAGRALGYVCAPSLFQKMIVKCQGATGDINAYKENRDLLYEGLTRIGYHCFKPDGAFYMFVKALEDDSNAFCEKAKEEDVLIVAADGFGCPGWVRISYCVDREMIKHSMPAFEKIYKKYNK” the “soluble on expression in E. coli” value was “soluble”.
